# B1: Ank^GAG1D4 (designed binder)
# chain: DLGKKLLEAARAGQDDEVRLLLEHGADVNARDSIGSTPLHLAAYYGHLEIVRLLLEHGADVNARDSTGTTPLHYAARLGHLEIVRLLLEHGADVNARDAMGWTPLHLAAKKGHLEIVRLLLKHGADVNANDHFGKTAFDISIDNGNEDLAEILQSFNHHHHHH
# Target: H6MA-CA, His-tagged matrix-capsid (MAp17-CAp24) domains of the HIV-1 Gag precursor (HIV-1 (pNL4-3))
# Assay: ITC
binder,measurement,value
B1,Kd,1090 nM
